# T1: G-CSFR/gp130 chimera proteins (Homo sapiens, UniProt P40189+Q99062)
# T1 construct: the extracellular domain of the human G-CSF receptor fused to the full transmembrane domain; expressed in transfected cells; host or cells: F11 cells
# T1 sequence (Q99062+P40189 with tags, fused parts or gaps): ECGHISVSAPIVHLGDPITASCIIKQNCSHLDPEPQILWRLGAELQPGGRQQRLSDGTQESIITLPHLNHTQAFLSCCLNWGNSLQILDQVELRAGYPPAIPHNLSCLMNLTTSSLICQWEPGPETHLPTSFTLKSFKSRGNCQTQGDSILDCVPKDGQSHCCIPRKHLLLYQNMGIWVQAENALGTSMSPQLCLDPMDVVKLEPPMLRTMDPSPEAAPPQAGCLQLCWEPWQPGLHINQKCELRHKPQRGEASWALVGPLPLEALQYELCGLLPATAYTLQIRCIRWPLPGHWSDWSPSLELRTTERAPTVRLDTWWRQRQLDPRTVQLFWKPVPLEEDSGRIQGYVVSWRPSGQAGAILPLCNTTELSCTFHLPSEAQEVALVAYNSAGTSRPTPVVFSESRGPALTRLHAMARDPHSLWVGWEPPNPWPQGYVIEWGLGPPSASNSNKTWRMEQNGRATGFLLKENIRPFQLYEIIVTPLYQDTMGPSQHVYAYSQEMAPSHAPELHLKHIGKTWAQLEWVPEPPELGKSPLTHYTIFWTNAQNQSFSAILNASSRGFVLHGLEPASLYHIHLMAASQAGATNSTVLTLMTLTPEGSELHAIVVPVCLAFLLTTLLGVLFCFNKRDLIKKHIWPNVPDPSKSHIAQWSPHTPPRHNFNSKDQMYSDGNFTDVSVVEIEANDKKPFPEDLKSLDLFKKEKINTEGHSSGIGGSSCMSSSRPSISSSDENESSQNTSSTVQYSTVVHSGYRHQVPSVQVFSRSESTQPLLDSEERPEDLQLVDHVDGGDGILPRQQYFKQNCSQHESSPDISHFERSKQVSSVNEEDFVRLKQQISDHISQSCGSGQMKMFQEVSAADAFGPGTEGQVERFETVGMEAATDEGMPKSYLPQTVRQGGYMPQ
# B1: G-CSF: human G-CSF, ligand stimulating G-CSFR/gp130 chimera proteins (protein, UniProt P09919 31-207, looked up)
# Granulocyte …: TPLGPASSLPQSFLLKCLEQVRKIQGDGAALQEKLVSECATYKLCHPEELVLLGHSLGIPWAPLSSCPSQALQLAGCLSQLHSGLFLYQGLLQALEGISPELGPTLDTLQLDVADFATTIWQQMEELGMAPALQPTQGAMPAFASAFQRRAGGVLVASHLQSFLEVSYRVLRHLAQP
# Biological target: T1, G-CSFR/gp130 chimera proteins
# Experiment: G-CSF stimulation of G-CSFR/gp130 chimera proteins in F11 cells, cell mortality by Trypan blue exclusion
# Assay type: cell-based
# Settings: 100 nM; G-277 expressed
# Description: B) F11 cells were transfected with 0.5 μg of the pcDNA3 vector or pcDNA3-APP in association with 0.5 μg of the pEFBos vector or the pEFBos vectors encoding the extracellular domain of the human G-CSF receptor fused to the full transmembrane domain and a C-terminally truncated intracytoplasmic domain of gp130 (named “G-CSFR/gp130”). G-CSFR/gp130 (277) contains the full intracytoplasmic domain of gp130 corresponding to amino acids 1-277, while G-CSFR/gp130 (25), (68), and (133) contain the intracytoplasmic domains corresponding to amino acids 1-25, 1-68, and 1-133, respectively. At 24 hr after transfection, the cells were added with indicated amounts of human G-CSF. Cell mortality was determined by Trypan blue exclusion assay at 72 hr after transfection. The results of immunoblot analysis of the expression of […] are shown in photos.
# C) Instead of the pcDNA3-V6421-APP vector, pcDNA3-K595 N/M596L-APP (NL-APP), M146L-PS1 and N141-I-PS2 vectors were used to do the same experiments as in FIG. 2A. The results of immunoblot analysis of the expression of NL-APP, M146L-PS1 and N141-I-PS2 are shown in photos.
# D) F11 cells were transfected with 0.5 μg of the pEFBos vector or pEF-G85R-SOD1 in association with 0.5 μg of the pEFBos vector or each pEFBos vector encoding G-CSFR/gp130 (277) or G-CSFR/gp130 (25). At 24 hr after transfection, the cells were added with indicated amounts of human G-CSF. Cell mortality was determined by Trypan blue exclusion assay at 72 hr after transfection. The results of the expression of G85R-SOD1, which were confirmed by the immunoblot analysis, are shown in photos.
# Neurohybrid F11 cells and pcDNA3 vectors encoding V642I-APP, K595N/M596L-APP (NL-APP), M146L-PS1, and N141I-PS2 cDNA were prepared as already described (Hashimoto et al, 2000, 2001a, 2003). pCAG-human gp130 and pCAG-human gp130 ED (the extracellular domain of human gp130) were prepared as described (Kumanogoh et al., 1997). pcDNA3 vectors encoding the extracellular domain of the G-CSF receptor fused to the full-length transmembrane domain and various portions of the intracellular domains of human gp130, were prepared as described (Fukada et al, 1996). The intracellular domain of gp130 was C-terminally truncated. A chimera protein named G-277 contained a 277 amino acid-long full intracellular domain of gp130 (SEQ ID NO:35), while G-195, G-133, G-68, and G-25 contained the amino acids 1-195 (SEQ ID NO:36), 1-133 (SEQ ID NO:37), 1-68 (SEQ ID NO:38), and 1-25 (SEQ ID NO:39) intracellular portions, respectively. C-terminally myc-tagged human WSX-1 and myc-tagged mouse CREME9 cDNAs were amplified from human and mouse embryo cDNA (BioChain) by PCR using sets of sense primers and antisense primers: 5′-[…]-3′ (SEQ ID NO:3) and 5′-[…]-3′ (SEQ ID NO:4) for human WSX-1; 5′-[…]-3′ (SEQ ID NO:5); and 5′-[…]-3′ (SEQ ID NO:6) for mouse CREME9. Plasmids encoding C-terminally V5-tagged human CNTF-R (V %-CNTF-R) and rat IL-6R (pUCM18-rat IL-6R) were purchased from Invitrogen and American Culture Collection, respectively. A pEFBos vector comprising familial ALS (FALS) gene G85R-SOD1 was kindly provided by Dr. Shoji Tsuji. Cosmid of human wild […] was constructed by inserting a full-length gp130 into a SwaI site of pAxCAwt (TaKaRa).
# The transfection procedures were as described (Hashimoto et al, 2000, 2001a, 2003). F11 cells, seeded at 7×10^4/well in 6-well dishes, were transfected with indicated vectors. Transfection efficiency in these protocols has been determined to be invariably around 70%. At 72 hrs after transfection, the Trypan blue exclusion assay and LDH assay were performed as a cell-death assay and the WST-8 assay was performed as cell-viability assays (Hashimoto et al, 2000, 2001a b, 2003). HN was added to the culture medium usually at 5 hrs after transfection, but in some cases at 24 hrs after transfection.
molecule,measurement,value
B1,"prevention of NL-APP-, M146L-PS1-, N141I-PS2-mediated neuronal cell death",prevented
same,prevention of neuronal cell death induced by V642I-APP,prevented
